Where two headings read alike, the source gives them in different places.
Assays:
recombinant human IL-13 [1] = target: T1, recombinant human IL-13 (human, UniProt P35225 35-146); experiment: SPR
T1 construct: also called rh-IL-13; hIL-13

human TSLP [2] = target: T2, human TSLP (human, UniProt Q969D9 29-159); experiment: SPR
T2 construct: also called hTSLP; rhTSLP

hTSLP-His [3] = target: T3, hTSLP-His (human, UniProt Q969D9 29-159, limits assumed); experiment: competition ELISA, 7 nM TSLP-His pre-incubated with antibody; competitor Tezepelumab coated
T3 construct: bought; also called hTSLP (ACROBiosystems TSP-H52Hb); not shown: His tag

recombinant human IL-13 [4] = target: T1, recombinant human IL-13; experiment: cell-based or functional assay
recombinant human IL-13 [5] = target: T1, recombinant human IL-13; experiment: cell-based or functional assay; remark: listed apart in the source
human TSLP [6] = target: T2, human TSLP; experiment: cell-based or functional assay
[7] = target: T4, cynomolgus monkey (cyno) TSLP (cynomolgus monkey, UniProt A0A7N9CAT7 29-159); experiment: SPR
T4 construct: also called cTSLP; cynomolgus TSLP

[8] = target: T5, recombinant cynomolgus monkey IL-13 (cynomolgus monkey, UniProt Q0PW92 21-132); experiment: SPR
T5 construct: bought; also called rc-IL-13; cIL-13

recombinant human IL-13 [9] = target: T1, recombinant human IL-13; experiment: SPR; remark: listed apart in the source
human TSLP [10] = target: T2, human TSLP; experiment: SPR; remark: listed apart in the source
hTSLP-His [11] = target: T3, hTSLP-His; experiment: cell-based or functional assay

T4 sequence (A0A7N9CAT7 entry or part of it): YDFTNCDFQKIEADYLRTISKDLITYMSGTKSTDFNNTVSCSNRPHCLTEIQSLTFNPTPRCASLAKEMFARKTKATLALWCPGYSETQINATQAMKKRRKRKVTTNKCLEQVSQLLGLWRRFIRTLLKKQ
T1 sequence (P35225 35-146 limits assumed): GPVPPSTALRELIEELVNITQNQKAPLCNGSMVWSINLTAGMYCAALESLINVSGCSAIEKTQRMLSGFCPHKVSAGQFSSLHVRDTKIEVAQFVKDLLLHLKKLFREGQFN
T5 sequence (Q0PW92 entry or part of it): as the sequence (P35225 35-146 limits assumed) above, with G1S, R10K, M42V, S67N, H83R, L100V counted along it

IC50 (hTSLP-His [3]) [nM] | IC50 CD23 (recombinant human IL-13 [4]) [nM] | HEK-IL-13 [nM] (IC50, STAT6 reporter) (recombinant human IL-13 [5]) | Kd [7] [pM] | koff [7] [s⁻¹] | kon [7] [M⁻¹ s⁻¹] | Kd [8] [nM] | koff [8] [s⁻¹] | kon [8] [M⁻¹ s⁻¹] | Kd (recombinant human IL-13 [9]) [nM] | koff (recombinant human IL-13 [9]) [s⁻¹] | kon (recombinant human IL-13 [9]) [M⁻¹ s⁻¹] | Kd (human TSLP [10]) [pM] | koff (human TSLP [10]) [s⁻¹] | kon (human TSLP [10]) [M⁻¹ s⁻¹] | IC50 [pM], STAT5 phosphorylation inhibition in MUTZ5 cells (hTSLP-His [11]) [pM] | Binder | also measured
– | 0.407 | 0.406 | – | – | – | – | – | – | – | – | – | – | – | – | – | BDG38.135 (antibody, V domains shown) VH: QMQLVESGGGVVQPGQSLRLSCAASGFAFRTYGMHWVRQAPGKGLEWLAVIWYDGSNTHYADSVKGRFTITRDNSKNTLNLQMNSLRAEDTAVYYCVRAPQWYNSAEAFDLWGQGTMVTVSS VL: SYVLTQPPSVSVAPGQTARITCGGNLIGARLVHWYQQKPGQAPVLVVYDDSDRPSHIPERFSGSNSGNTATLTISRVEAGDEADYYCQVWDHSADTMVFGGGTKLTVL | IC50 TARC (human TSLP [6]): 0.804 nM
– | – | 0.271 | – | – | – | – | – | – | 0.507 | 0.00156 | 3.07e+06 | 8.58 | 4.17e-05 | 4.86e+06 | 32 | BDG38.134 (antibody, V domains shown, IgG1) VH: QMQLVESGGGVVQPGQSLRLSCAASGFEFRTYGMHWVRQAPGKGLEWLAVIWYDGSNTHYADSVKGRFTITRDNSKNTLNLQMNSLRAEDTAVYYCVRAPQWYNSAEAFDLWGQGTMVTVSS VL: SYVLTQPPSVSVAPGQTARITCGGNLIGARLVHWYQQKPGQAPVLVIYDDSDRPSHIPERFSGSNSGNTATLTISRVEAGDEADYYCQVWDYSADTMVFGGGTKLTVL | –
5.63 | 0.146 | 0.043 | 0.614 | 2.78e-06 | 4.53e+06 | 0.0238 | 0.00131 | 5.54e+07 | 0.0344 | 0.000168 | 4.88e+06 | 8.27 | 2.79e-05 | 3.38e+06 | 2.21 | BDG38.140 (antibody, V domains shown, IgG1) VH: QMQLVESGGGVVQPGRSLTLSCAASGFEFRTYGMHWVRQAPGKGLEWVGVIWDDGSNTHYADSVKGRFTITRDNSKNTLNLQMNSLRVEDTAVYYCARAPQWYLTAEAFDLWGQGTMVTVSS VL: SYILTQPPSVSVAPGETATITCGGNLIGAKLVHWYQQKPGQAPVLVIYDDSDRPSRIPERFSGSNIGNTATLTIEDVEAGDEADYYCQVWDYSANHMVFGGGTKLTVL | –
– | 0.07 | 0.0443 | – | – | – | – | – | – | 0.179 | 0.000356 | 2e+06 | 0.0746 | 2.85e-07 | 3.82e+06 | – | BDG38.131 (antibody, V domains shown, IgG1) VH: QMQLVESGGGVVQPGRSLTLSCAASGFEFRTYGMHWVRQAPGKGLEWVAVIWDDGSNTHYADSVKGRFTITRDNSKNTLNLQMNSLRAEDTAVYYCVRAPQWYLTAEAFDLWGQGTMVTVSS VL: SYILTQPPSVSVAPGETATITCGGNLIGAKLVHWYQQKPGQAPVLVIYDDSDRPSRIPERFSGSNIGNTATLTISDVEEGDEADYYCQVWDYYSNTMVFGGGTKLTVL | –
9.57 | 0.012 | 0.0464 | 2.39 | 1.55e-05 | 6.5e+06 | 0.339 | 0.0077 | 2.27e+07 | 0.0275 | 0.000212 | 7.71e+06 | 3.27 | 2.54e-05 | 7.78e+06 | 89 | BDG38.139 (antibody, V domains shown, IgG1) VH: QMQLVESGGGVVQPGRSLRLSCAASGFAFRTYGMHWVRQAPGKGLEWVAVIWDDGSNTHYADSVKGRFTITRDNSKNTLNLQMNSLRAEDTAVYYCVRAPQWYLSAEAFDLWGQGTMVTVSS VL: SYVLTQPPSVSVAPGETATITCGGNMIGAYLVHWYQQKPGQAPLLVIYDDVDRPARIPERFSGSNSGNTATLTISRVEAGDEADYYCQVWDHNSDHMVFGGGTKLTVL | –

The next lines start with the binder.

Binder | IC50 (hTSLP-His [3]) [nM] | IC50 CD23 (recombinant human IL-13 [4]) [nM] | HEK-IL-13 [nM] (IC50, STAT6 reporter) (recombinant human IL-13 [5]) | Kd [7] [pM] | koff [7] [s⁻¹] | kon [7] [M⁻¹ s⁻¹] | Kd [8] [nM] | koff [8] [s⁻¹] | kon [8] [M⁻¹ s⁻¹] | Kd (recombinant human IL-13 [9]) [nM] | koff (recombinant human IL-13 [9]) [s⁻¹] | kon (recombinant human IL-13 [9]) [M⁻¹ s⁻¹] | Kd (human TSLP [10]) [pM] | koff (human TSLP [10]) [s⁻¹] | kon (human TSLP [10]) [M⁻¹ s⁻¹] | IC50 [pM], STAT5 phosphorylation inhibition in MUTZ5 cells (hTSLP-His [11]) [pM] | also measured
BDG38.106 (antibody, V domains shown, IgG1) VH: QMQLVESGGGVVQPGRSLTLSCAASGFEFRTYGMHWVRQAPGKGLEWVAVIWDDGSNTVYADSVKGRFTITRDNSKNTLNLQMNSLRVEDTAVYYCVRAPQWYLTAEAFDLWGQGTMVTVSS VL: SYILTQPPSVSVAPGQTATITCGGNLIGSRLVHWYQQKPGQAPVLVIYDDSDRPSRIPERFSGSNIGNTATLTIEDVEEGDEADYYCQVWDHYSDHMVFGGGTKLTVL | 10.1 | 0.162 | 0.0113 | – | – | – | – | – | – | – | – | – | – | – | – | – | Kd (recombinant human IL-13 [1]): 0.0346 nM; koff (recombinant human IL-13 [1]): 0.000205 s⁻¹; kon (recombinant human IL-13 [1]): 5.93e+06 M⁻¹ s⁻¹; Kd (human TSLP [2]): 0.0525 nM; koff (human TSLP [2]): 0.000257 s⁻¹; kon (human TSLP [2]): 4.9e+06 M⁻¹ s⁻¹
BDG38.125 (antibody, V domains shown, IgG1) VH: QMQLVESGGGVVQPGRSLRLSCAASGFEFRTYGMHWVRQAPGKGLEWVAVIWDDGSNTHYADSVKGRFTITRDNSKNTLNLQMNSLRAEDTAVYYCVRAPQWYLTAEAFDLWGQGTMVTVSS VL: SYVLTQPPSVSVAPGETATITCGGNLIGARLVHWYQQKPGQAPVLVIYDDSDRPSRIPERFSGSNIGNTATLTIERVEEGDEADYYCQVWDYSSDHMVFGGGTKLTVL | 8.44 | 0.0527 | 0.0562 | 45.2 | 0.000119 | 2.64e+06 | 0.0389 | 0.00135 | 3.46e+07 | 0.00778 | 4.76e-05 | 6.12e+06 | 25.5 | 0.000121 | 4.76e+06 | – | –
BDG38.129 (antibody, V domains shown, IgG1) VH: QMQLVESGGGVVQPGRSLTLSCAASGFEFRTYGMHWVRQAPGKGLEWVGVIWDDGSNTHYADSVKGRFTITRDNSKNTLNLQMNSLRVEDTAVYYCARAPQWYLTAEAFDLWGQGTMVTVSS VL: SYILTQPPSVSVAPGQTATITCGGNLIGAKLVHWYQQKPGQAPVLVIYDDSDRPSRIPERFSGSNIGNTATLTISDVEEGDEADYYCQVWDYSSDHMVFGGGTKLTVL | 5.49 | 0.029 | 0.0725 | 14.1 | 5.27e-05 | 3.75e+06 | 0.0231 | 0.0014 | 6.05e+07 | 0.0167 | 0.000116 | 6.96e+06 | 22.6 | 9.12e-05 | 4.03e+06 | 0.676 | –
BDG38.117 (antibody, V domains shown, IgG1) VH: QMQLVESGGGVVQPGRSLTLSCAASGFEFRTYGMHWVRQAPGKGLEWVGVIWDDGSNTHYADSVKGRFTITRDNSKNTLNLQMNSLRAEDTAVYYCARAPQWYLTAEAFDLWGQGTMVTVSS VL: SYVLTQPPSVSVAPGETATITCGGNLIGAKLVHWYQQKPGQAPVLVIYDDSDRPSRIPERFSGSNIGNTATLTIEDVEAGDEADYYCQVWDYSSDTMVFGGGTKLTVL | 6.14 | 0.121 | 0.0801 | 8.9 | 0.000452 | 5.08e+07 | 0.0367 | 0.00144 | 3.94e+07 | – | – | – | – | – | – | 0.363 | Kd (recombinant human IL-13 [1]): 0.0149 nM; koff (recombinant human IL-13 [1]): 0.000103 s⁻¹; kon (recombinant human IL-13 [1]): 6.94e+06 M⁻¹ s⁻¹; Kd (human TSLP [2]): 0.00382 nM; koff (human TSLP [2]): 2.7e-05 s⁻¹; kon (human TSLP [2]): 7.07e+06 M⁻¹ s⁻¹
BDG38.127 (antibody, V domains shown, IgG1) VH: QMQLVESGGGVVQPGRSLTLSCAASGFEFRTYGMHWVRQAPGKGLEWVGVIWYDGSATHYADSVKGRFTITRDNSKNTLNLQMNSLRAEDTAVYYCARAPQWYLTAEAFDLWGQGTMVTVSS VL: SYILTQPPSVSVAPGETATITCGGNLIGAKLVHWYQQKPGQAPVLVIYDDSDRPSRIPERFSGSNIGNTATLTISDVEAGDEADYYCQVWDYYSDTYVFGGGTKLTVL | – | – | 0.044 | – | – | – | – | – | – | 0.00847 | 5.01e-05 | 5.91e+06 | 991 | 0.000427 | 431000 | 0.143 | –
BDG38.128 (antibody, V domains shown, IgG1) VH: QMQLVESGGGVVQPGRSLTLSCAASGFEFRTYGMHWVRQAPGKGLEWVAVIWDDGSNTHYADSVKGRFTITRDNSKNTLNLQMNSLRVEDTAVYYCVRAPQWYLTAEAFDLWGQGTMVTVSS VL: SYILTQPPSVSVAPGETATITCGGNLIGAKLVHWYQQKPGQAPVLVIYDDSDRPSRIPERFSGSNSGNTATLTISDVEEGDEADYYCQVWDYYADTMVFGGGTKLTVL | 5.38 | 0.0149 | 0.0523 | 0.0492 | 7.62e-08 | 1.55e+06 | 0.102 | 0.00309 | 3.02e+07 | 0.0321 | 0.000176 | 5.49e+06 | 9.07 | 3.86e-05 | 4.25e+06 | 0.0048 | –
BDG38.118 (antibody, V domains shown, IgG1) VH: QMQLVESGGGVVQPGRSLRLSCAASGFEFRTYGMHWVRQAPGKGLEWVGVIWYDGSATHYADSVKGRFTITRDNSKNTLNLQMNSLRVEDTAVYYCVRAPQWYLTAEAFDLWGQGTMVTVSS VL: SYILTQPPSVSVAPGETATITCGGNLIGARLVHWYQQKPGQAPVLVIYDDSDRPSRIPERFSGSNIGNTATLTISDVEEGDEADYYCQVWDYSSDHYVFGGGTKLTVL | – | – | 0.0804 | – | – | – | – | – | – | 0.0157 | 6.7e-05 | 4.27e+06 | 964 | 0.00043 | 446000 | 0.688 | –
